Measurements: US20170015742A1 (published 2017)

These binders were tested against recombinant human PDGF-BB (human, UniProt P01127 82-190) (assay: cell-based or functional assay).
recombinant human PDGF-BB, sequence (P01127 82-190 limits assumed): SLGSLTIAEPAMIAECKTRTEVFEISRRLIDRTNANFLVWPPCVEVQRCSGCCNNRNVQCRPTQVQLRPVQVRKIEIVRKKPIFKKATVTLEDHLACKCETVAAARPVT

| NIH-3T3 hPDGF-BB Potency IC50 [nM] | Binder |
| --- | --- |
| 0.109 | 4G8.3-LS-9E8.4 (g) DVD-Ig (PR-1572106) (bispecific antibody, human IgG1, kappa, L234A L235A) heavy: EVQLVQSGSELKKPGASVKVSCKASGYTFTNYGMYWVRQAPGQGLEWMGWINTETGKPTYADDFKGRFVFSLDTSVSTAYLQISSLKAEDTAVYYCARTNYYYRSYIFYFDYWGQGTMVTVSSASTKGPSVFPLAPEVTLRESGPALVKPTQTLTLTCTFSGFSLSTYGMGVGWIRQPPGKALEWLANIWWDDDKYYNPSLKNRLTISKDTSKNQVVLTMTNMDPVDTATYYCARIESIGTTYSFDYWGQGTMVTVSSASTKGPSVFPLAPSSKSTSGGTAALGCLVKDYFPEPVTVSWNSGALTSGVHTFPAVLQSSGLYSLSSVVTVPSSSLGTQTYICNVNHKPSNTKVDKKVEPKSCDKTHTCPPCPAPEAAGGPSVFLFPPKPKDTLMISRTPEVTCVVVDVSHEDPEVKFNWYVDGVEVHNAKTKPREEQYNSTYRVVSVLTVLHQDWLNGKEYKCKVSNKALPAPIEKTISKAKGQPREPQVYTLPPSREEMTKNQVSLTCLVKGFYPSDIAVEWESNGQPENNYKTTPPVLDSDGSFFLYSKLTVDKSRWQQGNVFSCSVMHEALHNAYTQKSLSLSPGK light: DTVLTQSPATLSLSPGERATLSCRASESVSTHMHWYQQKPGQAPRLLIYGASNLESGVPARFSGSGSGTDFTLTISSLEPEDFAVYFCQQSWNDPFTFGQGTKLEIKRTVAAPEFVLTQSPGTLSLSPGERATLSCERSSGDIGDSYVSWYQQKPGQAPRLVIYADDQRPSGIPDRFSGSGSGTDFTLTISRLEPEDFAVYYCQSYDINIDIVFGGGTKVEIKRTVAAPSVFIFPPSDEQLKSGTASVVCLLNNFYPREAKVQWKVDNALQSGNSQESVTEQDSKDSTYSLSSTLTLSKADYEKHKVYACEVTHQGLSSPVTKSFNRGEC |
| 0.176 | 4G8.3-LS-9E8.4E DVD-Ig (PR-1575835) (bispecific antibody, human IgG1, kappa, L234A L235A) heavy: EVQLVQSGSELKKPGASVKVSCKASGYTFTNYGMYWVRQAPGQGLEWMGWINTETGKPTYADDFKGRFVFSLDTSVSTAYLQISSLKAEDTAVYYCARTNYYYRSYIFYFDYWGQGTMVTVSSASTKGPSVFPLAPEVTLRESGPALVKPTQTLTLTCTFSGFSLSTYGMGVGWIRQPPGKALEWLANIWWDDDKYYNPSLKNRLTISKDTSKNQVVLTMTNMDPVDTATYYCARIESIGTTYSFDYWGQGTMVTVSSASTKGPSVFPLAPSSKSTSGGTAALGCLVKDYFPEPVTVSWNSGALTSGVHTFPAVLQSSGLYSLSSVVTVPSSSLGTQTYICNVNHKPSNTKVDKKVEPKSCDKTHTCPPCPAPEAAGGPSVFLFPPKPKDTLMISRTPEVTCVVVDVSHEDPEVKFNWYVDGVEVHNAKTKPREEQYNSTYRVVSVLTVLHQDWLNGKEYKCKVSNKALPAPIEKTISKAKGQPREPQVYTLPPSREEMTKNQVSLTCLVKGFYPSDIAVEWESNGQPENNYKTTPPVLDSDGSFFLYSKLTVDKSRWQQGNVFSCSVMHEALHNAYTQKSLSLSPGK light: DTVLTQSPATLSLSPGERATLSCRASESVSTHMHWYQQKPGQAPRLLIYGASNLESGVPARFSGSGSGTDFTLTISSLEPEDFAVYFCQQSWNDPFTFGQGTKLEIKRTVAAPEFVLTQSPGTLSLSPGERATLSCERSSGDIGESYVSWYQQKPGQAPRLVIYADDQRPSGIPDRFSGSGSGTDFTLTISRLEPEDFAVYYCQSYDINIDIVFGGGTKVEIKRTVAAPSVFIFPPSDEQLKSGTASVVCLLNNFYPREAKVQWKVDNALQSGNSQESVTEQDSKDSTYSLSSTLTLSKADYEKHKVYACEVTHQGLSSPVTKSFNRGEC |
| 0.148 | 9A8.12-SL-9E8.4E DVD-Ig (PR-1577166) (bispecific antibody, human IgG1, kappa, L234A L235A) heavy: EVQLVQSGAEVKKPGASVKVSCKASGYTFTNYGMYWVRQAPGQGLEWMGWINTETGKPIYADDFKGRVTMTTDTSTSTAYMELRSLRSDDTAVYYCARVDYDGSFWFAYWGQGTLVTVSSASTKGPEVTLRESGPALVKPTQTLTLTCTFSGFSLSTYGMGVGWIRQPPGKALEWLANIWWDDDKYYNPSLKNRLTISKDTSKNQVVLTMTNMDPVDTATYYCARIESIGTTYSFDYWGQGTMVTVSSASTKGPSVFPLAPSSKSTSGGTAALGCLVKDYFPEPVTVSWNSGALTSGVHTFPAVLQSSGLYSLSSVVTVPSSSLGTQTYICNVNHKPSNTKVDKKVEPKSCDKTHTCPPCPAPEAAGGPSVFLFPPKPKDTLMISRTPEVTCVVVDVSHEDPEVKFNWYVDGVEVHNAKTKPREEQYNSTYRVVSVLTVLHQDWLNGKEYKCKVSNKALPAPIEKTISKAKGQPREPQVYTLPPSREEMTKNQVSLTCLVKGFYPSDIAVEWESNGQPENNYKTTPPVLDSDGSFFLYSKLTVDKSRWQQGNVFSCSVMHEALHNAYTQKSLSLSPGK light: DTQLTQSPSSLSASVGDRVTITCRASESVSTVIHWYQQKPGKQPKLLIHGASNLESGVPSRFSGSGSGTDFTLTISSLQPEDFATYFCQQHWNDPPTFGQGTKLEIKRTVAAPSVFIFPPEFVLTQSPGTLSLSPGERATLSCERSSGDIGESYVSWYQQKPGQAPRLVIYADDQRPSGIPDRFSGSGSGTDFTLTISRLEPEDFAVYYCQSYDINIDIVFGGGTKVEIKRTVAAPSVFIFPPSDEQLKSGTASVVCLLNNFYPREAKVQWKVDNALQSGNSQESVTEQDSKDSTYSLSSTLTLSKADYEKHKVYACEVTHQGLSSPVTKSFNRGEC |
| 0.204 | 9A8.12-GS-9E8.4E DVD-Ig (PR-1577165) (bispecific antibody, human IgG1, kappa, L234A L235A) heavy: EVQLVQSGAEVKKPGASVKVSCKASGYTFTNYGMYWVRQAPGQGLEWMGWINTETGKPIYADDFKGRVTMTTDTSTSTAYMELRSLRSDDTAVYYCARVDYDGSFWFAYWGQGTLVTVSSGGGGSGGGGSEVTLRESGPALVKPTQTLTLTCTFSGFSLSTYGMGVGWIRQPPGKALEWLANIWWDDDKYYNPSLKNRLTISKDTSKNQVVLTMTNMDPVDTATYYCARIESIGTTYSFDYWGQGTMVTVSSASTKGPSVFPLAPSSKSTSGGTAALGCLVKDYFPEPVTVSWNSGALTSGVHTFPAVLQSSGLYSLSSVVTVPSSSLGTQTYICNVNHKPSNTKVDKKVEPKSCDKTHTCPPCPAPEAAGGPSVFLFPPKPKDTLMISRTPEVTCVVVDVSHEDPEVKFNWYVDGVEVHNAKTKPREEQYNSTYRVVSVLTVLHQDWLNGKEYKCKVSNKALPAPIEKTISKAKGQPREPQVYTLPPSREEMTKNQVSLTCLVKGFYPSDIAVEWESNGQPENNYKTTPPVLDSDGSFFLYSKLTVDKSRWQQGNVFSCSVMHEALHNAYTQKSLSLSPGK light: DTQLTQSPSSLSASVGDRVTITCRASESVSTVIHWYQQKPGKQPKLLIHGASNLESGVPSRFSGSGSGTDFTLTISSLQPEDFATYFCQQHWNDPPTFGQGTKLEIKRGGSGGGGSGEFVLTQSPGTLSLSPGERATLSCERSSGDIGESYVSWYQQKPGQAPRLVIYADDQRPSGIPDRFSGSGSGTDFTLTISRLEPEDFAVYYCQSYDINIDIVFGGGTKVEIKRTVAAPSVFIFPPSDEQLKSGTASVVCLLNNFYPREAKVQWKVDNALQSGNSQESVTEQDSKDSTYSLSSTLTLSKADYEKHKVYACEVTHQGLSSPVTKSFNRGEC |
| 0.298 | 4G8.3-GS(11)-9E8.4 (g) DVD-Ig (PR-1572103) (bispecific antibody, human IgG1, kappa, L234A L235A) heavy: EVQLVQSGSELKKPGASVKVSCKASGYTFTNYGMYWVRQAPGQGLEWMGWINTETGKPTYADDFKGRFVFSLDTSVSTAYLQISSLKAEDTAVYYCARTNYYYRSYIFYFDYWGQGTMVTVSSGGGGSGGGGSEVTLRESGPALVKPTQTLTLTCTFSGFSLSTYGMGVGWIRQPPGKALEWLANIWWDDDKYYNPSLKNRLTISKDTSKNQVVLTMTNMDPVDTATYYCARIESIGTTYSFDYWGQGTMVTVSSASTKGPSVFPLAPSSKSTSGGTAALGCLVKDYFPEPVTVSWNSGALTSGVHTFPAVLQSSGLYSLSSVVTVPSSSLGTQTYICNVNHKPSNTKVDKKVEPKSCDKTHTCPPCPAPEAAGGPSVFLFPPKPKDTLMISRTPEVTCVVVDVSHEDPEVKFNWYVDGVEVHNAKTKPREEQYNSTYRVVSVLTVLHQDWLNGKEYKCKVSNKALPAPIEKTISKAKGQPREPQVYTLPPSREEMTKNQVSLTCLVKGFYPSDIAVEWESNGQPENNYKTTPPVLDSDGSFFLYSKLTVDKSRWQQGNVFSCSVMHEALHNAYTQKSLSLSPGK light: DTVLTQSPATLSLSPGERATLSCRASESVSTHMHWYQQKPGQAPRLLIYGASNLESGVPARFSGSGSGTDFTLTISSLEPEDFAVYFCQQSWNDPFTFGQGTKLEIKRGGSGGGGSGGEFVLTQSPGTLSLSPGERATLSCERSSGDIGDSYVSWYQQKPGQAPRLVIYADDQRPSGIPDRFSGSGSGTDFTLTISRLEPEDFAVYYCQSYDINIDIVFGGGTKVEIKRTVAAPSVFIFPPSDEQLKSGTASVVCLLNNFYPREAKVQWKVDNALQSGNSQESVTEQDSKDSTYSLSSTLTLSKADYEKHKVYACEVTHQGLSSPVTKSFNRGEC |
| 0.095 | 4G8.3-GS(noR)-9E8.4 (g) DVD-Ig (PR-1572104) (bispecific antibody, human IgG1, kappa, L234A L235A) heavy: EVQLVQSGSELKKPGASVKVSCKASGYTFTNYGMYWVRQAPGQGLEWMGWINTETGKPTYADDFKGRFVFSLDTSVSTAYLQISSLKAEDTAVYYCARTNYYYRSYIFYFDYWGQGTMVTVSSGGGGSGGGGSEVTLRESGPALVKPTQTLTLTCTFSGFSLSTYGMGVGWIRQPPGKALEWLANIWWDDDKYYNPSLKNRLTISKDTSKNQVVLTMTNMDPVDTATYYCARIESIGTTYSFDYWGQGTMVTVSSASTKGPSVFPLAPSSKSTSGGTAALGCLVKDYFPEPVTVSWNSGALTSGVHTFPAVLQSSGLYSLSSVVTVPSSSLGTQTYICNVNHKPSNTKVDKKVEPKSCDKTHTCPPCPAPEAAGGPSVFLFPPKPKDTLMISRTPEVTCVVVDVSHEDPEVKFNWYVDGVEVHNAKTKPREEQYNSTYRVVSVLTVLHQDWLNGKEYKCKVSNKALPAPIEKTISKAKGQPREPQVYTLPPSREEMTKNQVSLTCLVKGFYPSDIAVEWESNGQPENNYKTTPPVLDSDGSFFLYSKLTVDKSRWQQGNVFSCSVMHEALHNAYTQKSLSLSPGK light: DTVLTQSPATLSLSPGERATLSCRASESVSTHMHWYQQKPGQAPRLLIYGASNLESGVPARFSGSGSGTDFTLTISSLEPEDFAVYFCQQSWNDPFTFGQGTKLEIKGGSGGGGSGGEFVLTQSPGTLSLSPGERATLSCERSSGDIGDSYVSWYQQKPGQAPRLVIYADDQRPSGIPDRFSGSGSGTDFTLTISRLEPEDFAVYYCQSYDINIDIVFGGGTKVEIKRTVAAPSVFIFPPSDEQLKSGTASVVCLLNNFYPREAKVQWKVDNALQSGNSQESVTEQDSKDSTYSLSSTLTLSKADYEKHKVYACEVTHQGLSSPVTKSFNRGEC |
